Data on 1 molecule can be found in patent publication US20060216236A1 (published 2006).

The test concerns the target integrin αvβ3 on human tumor cells (ECV304 bladder carcinoma, M21 melanoma) (human, UniProt P06756 31-1048; P05106 27-788). As to the kind of experiment: cell-based or functional assay.

Sequence of integrin αvβ3 on human tumor cells (ECV304 bladder carcinoma, M21 melanoma) (P06756 31-1048, chain 1 of 2): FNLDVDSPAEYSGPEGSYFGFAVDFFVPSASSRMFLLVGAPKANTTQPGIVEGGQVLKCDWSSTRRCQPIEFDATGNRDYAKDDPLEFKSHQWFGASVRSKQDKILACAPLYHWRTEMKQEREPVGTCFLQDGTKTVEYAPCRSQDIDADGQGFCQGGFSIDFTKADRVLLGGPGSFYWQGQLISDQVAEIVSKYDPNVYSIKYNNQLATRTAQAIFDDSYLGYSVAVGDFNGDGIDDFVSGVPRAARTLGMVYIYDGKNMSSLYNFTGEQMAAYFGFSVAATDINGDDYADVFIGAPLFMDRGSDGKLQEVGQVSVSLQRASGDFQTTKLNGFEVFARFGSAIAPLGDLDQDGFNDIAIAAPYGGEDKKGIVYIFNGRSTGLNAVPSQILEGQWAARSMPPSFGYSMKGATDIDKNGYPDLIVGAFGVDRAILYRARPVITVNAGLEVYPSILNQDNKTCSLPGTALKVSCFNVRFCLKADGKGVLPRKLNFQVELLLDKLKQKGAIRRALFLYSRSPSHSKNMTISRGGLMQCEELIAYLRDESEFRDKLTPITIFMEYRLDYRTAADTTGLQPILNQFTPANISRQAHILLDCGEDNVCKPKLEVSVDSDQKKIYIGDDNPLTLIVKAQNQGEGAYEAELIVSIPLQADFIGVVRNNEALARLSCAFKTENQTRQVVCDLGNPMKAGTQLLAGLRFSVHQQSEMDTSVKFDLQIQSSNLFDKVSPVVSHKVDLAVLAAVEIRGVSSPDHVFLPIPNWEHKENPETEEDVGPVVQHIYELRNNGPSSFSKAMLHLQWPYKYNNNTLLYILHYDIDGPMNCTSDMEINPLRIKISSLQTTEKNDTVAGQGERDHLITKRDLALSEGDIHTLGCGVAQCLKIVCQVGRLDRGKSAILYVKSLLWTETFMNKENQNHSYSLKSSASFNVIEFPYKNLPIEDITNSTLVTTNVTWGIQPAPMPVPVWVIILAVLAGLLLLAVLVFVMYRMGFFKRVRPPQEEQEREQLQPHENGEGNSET
Sequence of integrin αvβ3 on human tumor cells (ECV304 bladder carcinoma, M21 melanoma) (P05106 27-788, chain 2 of 2): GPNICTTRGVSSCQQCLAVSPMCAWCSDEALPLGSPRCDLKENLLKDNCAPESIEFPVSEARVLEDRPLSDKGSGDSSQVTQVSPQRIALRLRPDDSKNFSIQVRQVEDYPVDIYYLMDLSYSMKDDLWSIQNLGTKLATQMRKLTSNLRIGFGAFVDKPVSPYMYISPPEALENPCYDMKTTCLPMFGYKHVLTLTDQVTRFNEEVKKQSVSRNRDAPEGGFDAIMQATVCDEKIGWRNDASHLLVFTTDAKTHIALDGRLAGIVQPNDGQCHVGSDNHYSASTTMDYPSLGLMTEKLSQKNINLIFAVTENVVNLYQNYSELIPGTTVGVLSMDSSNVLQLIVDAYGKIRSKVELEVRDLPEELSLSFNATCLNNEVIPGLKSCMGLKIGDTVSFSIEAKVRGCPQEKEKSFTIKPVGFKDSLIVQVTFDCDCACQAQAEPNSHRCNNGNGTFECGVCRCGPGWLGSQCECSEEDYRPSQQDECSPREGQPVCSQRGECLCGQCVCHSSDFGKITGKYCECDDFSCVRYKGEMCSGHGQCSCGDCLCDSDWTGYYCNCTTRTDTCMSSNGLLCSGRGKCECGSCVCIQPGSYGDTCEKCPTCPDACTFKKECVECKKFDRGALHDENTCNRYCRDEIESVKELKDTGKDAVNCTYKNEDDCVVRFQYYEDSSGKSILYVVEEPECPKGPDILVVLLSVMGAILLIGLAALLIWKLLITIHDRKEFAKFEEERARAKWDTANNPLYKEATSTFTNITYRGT

B1: Mab LM609 (anti-αvβ3) (antibody, V domains shown)
VH: EVQLVESGGGLVKPGRSLRLSCAASGFAFSSYDMSWVRQIPEKRLEWVAKVSSGGGSTYYLDTVQGRFTISRDNAKNTLYLQMSSLNSEDTAMYYCARHNYGSFAYWGQGTLVTVSA
VL: DIVLTQSPATLSVTPGDSVSLSCQASQSISNHLHWYQQKSHESPRLLIKYRSQSISGIPSRFSGSGSGTDFALSINSVETEDFGMYFCQQSGSWPHTFGGGTKLEIK
Turning to B1, the “relative level of IGFBP-4 RNA (real time PCR) in M21 cells on denatured collagen type-IV” value was about 8 fold and the “relative level of TSP-1 RNA (real time PCR) in M21 cells on denatured collagen type-IV” value was about 8 fold.
